# According to US20140271457A1 (AbbVie / Abbott, published 2014):
# Molecular target: Recombinant Human IL-13 (human, UniProt P35225 35-146, limits assumed)
# Assay: cell-based or functional assay
# Sequence of Recombinant Human IL-13 (P35225 35-146 limits assumed): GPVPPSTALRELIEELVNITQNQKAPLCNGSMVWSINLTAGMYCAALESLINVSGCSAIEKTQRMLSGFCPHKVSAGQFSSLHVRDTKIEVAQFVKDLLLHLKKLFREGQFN
row,Binder,IL-13 Neutralization Assay IC50
1,"DVD2792 (bispecific antibody, human IgG1, kappa) heavy: not shown light: DIQMTQSPSSLSASVGDRVTISCRASQDIRNYLNWYQQKPGKAPKLLIFYTSKLHSGVPSRFSGSGSGTDYTLTISSLQPEDIATYYCQQGLTPPLTFGGGTKVEIKRTVAAPDIQMTQSPSSLSASVGDRVTITCRASQDISQYLNWYQQKPGKAPKLLIYYTSRLQSGVPSRFSGSGSGTDFTLTISSLQPEDFATYFCQQGNTWPPTFGQGTKLEIKRTVAAPSVFIFPPSDEQLKSGTASVVCLLNNFYPREAKVQWKVDNALQSGNSQESVTEQDSKDSTYSLSSTLTLSKADYEKHKVYACEVTHQGLSSPVTKSFNRGEC",0.361 nM
2,"DVD3014 (bispecific antibody, human IgG1, kappa) heavy: not shown light: DIQMTQSPSSLSASVGDRVTISCRASQDIRNYLNWYQQKPGKAPKLLIFYTSKLHSGVPSRFSGSGSGTDYTLTISSLQPEDIATYYCQQGLTPPLTFGGGTKVEIKRTVAAPDIQMTQSPSSLSASVGDRVTITCRASQDIENYLNWYQQKPGKAPKLLIYYTSRLQSGVPSRFSGSGSGTDFTLTISSLQPEDFATYFCQQGNTQPPTFGQGTKLEIKRTVAAPSVFIFPPSDEQLKSGTASVVCLLNNFYPREAKVQWKVDNALQSGNSQESVTEQDSKDSTYSLSSTLTLSKADYEKHKVYACEVTHQGLSSPVTKSFNRGEC",0.132 nM
3,"DVD3013 (bispecific antibody, human IgG1, kappa) heavy: not shown light: DIQMTQSPSSLSASVGDRVTISCRASQDIRNYLNWYQQKPGKAPKLLIFYTSKLHSGVPSRFSGSGSGTDYTLTISSLQPEDIATYYCQQGLTPPLTFGGGTKVEIKRGGSGGGGSGDIQMTQSPSSLSASVGDRVTITCRASQDIENYLNWYQQKPGKAPKLLIYYTSRLQSGVPSRFSGSGSGTDFTLTISSLQPEDFATYFCQQGNTQPPTFGQGTKLEIKRTVAAPSVFIFPPSDEQLKSGTASVVCLLNNFYPREAKVQWKVDNALQSGNSQESVTEQDSKDSTYSLSSTLTLSKADYEKHKVYACEVTHQGLSSPVTKSFNRGEC",0.077 nM
4,"AB399 (antibody, V domains shown) VH: EVQLVQSGAEVKKPGASVKVSCKASGYTFTSYWMHWVRQAPGQGLEWIGNINPKGGSNIYNEKFQGRVTMTRDTSISTAYMELSRLRSDDTAVYYCARLDYFGDSFDLWGQGTTVTVSS VL: DIQMTQSPSSLSASVGDRVTITCRASQGIRNYLNWYQQKPGKAPKLLIYYASNLEVGVPSRFSGSGSGTDYTLTISSLQPEDFATYYCQQDNRFPYTFGGGTKVEIKR",0.075 nM

# Now from value to binder:
row,IL-13 Neutralization Assay IC50,Binder
1,0.081 nM,"DVD3016 (bispecific antibody, human IgG1, kappa) heavy: not shown light: DIQMTQSPSSLSASVGDRVTISCRASQDIRNYLNWYQQKPGKAPKLLIFYTSKLHSGVPSRFSGSGSGTDYTLTISSLQPEDIATYYCQQGLTPPLTFGGGTKVEIKRTVAAPSVFIFPPDIQMTQSPSSLSASVGDRVTITCRASQDIENYLNWYQQKPGKAPKLLIYYTSRLQSGVPSRFSGSGSGTDFTLTISSLQPEDFATYFCQQGNTQPPTFGQGTKLEIKRTVAAPSVFIFPPSDEQLKSGTASVVCLLNNFYPREAKVQWKVDNALQSGNSQESVTEQDSKDSTYSLSSTLTLSKADYEKHKVYACEVTHQGLSSPVTKSFNRGEC"
2,0.111 nM,"DVD3017 (bispecific antibody, human IgG1, kappa) heavy: not shown light: DIQMTQSPSSLSASVGDRVTISCRASQDIRNYLNWYQQKPGKAPKLLIFYTSKLHSGVPSRFSGSGSGTDYTLTISSLQPEDIATYYCQQGLTPPLTFGGGTKVEIKRTVAAPDIQMTQSPSSLSASVGDRVTITCRASQDIENYLNWYQQKPGKAPKLLIYYTSRLQSGVPSRFSGSGSGTDFTLTISSLQPEDFATYFCQQGNTQPPTFGQGTKLEIKRTVAAPSVFIFPPSDEQLKSGTASVVCLLNNFYPREAKVQWKVDNALQSGNSQESVTEQDSKDSTYSLSSTLTLSKADYEKHKVYACEVTHQGLSSPVTKSFNRGEC"
